Where two headings read alike, the source gives them in different places.
T1: recombinant human CTLA4 protein with human IgG1 Fc tag at the C-terminus (Acro biosystems, Cat#CT4-H5255) (human, UniProt P16410 37-162)
T1 construct: bought protein; also called human CTLA4-Fc; CTLA4-Fc; not shown: human IgG1 Fc tag at the C-terminus
T1 sequence (looked up): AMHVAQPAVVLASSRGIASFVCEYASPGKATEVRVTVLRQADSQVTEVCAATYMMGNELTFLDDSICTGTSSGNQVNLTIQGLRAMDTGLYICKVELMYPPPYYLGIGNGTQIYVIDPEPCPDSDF

T2: recombinant human CTLA4-his protein (Acro biosystems, Cat#CT4-H5229) (human, UniProt P16410 37-162)
T2 construct: bought recombinant protein; not shown: his tag
T2 sequence (looked up): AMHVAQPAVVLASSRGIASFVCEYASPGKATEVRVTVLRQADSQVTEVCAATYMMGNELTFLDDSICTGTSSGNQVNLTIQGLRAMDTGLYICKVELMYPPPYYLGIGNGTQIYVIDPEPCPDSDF

T3: cynomolgus monkey CTLA4-his protein (Acro biosystems, Cat#CT4-C5227) (cynomolgus monkey, UniProt G7PL88 36-161)
T3 construct: bought recombinant protein; also called Cynomolgus CTLA4-his; not shown: his tag
T3 sequence: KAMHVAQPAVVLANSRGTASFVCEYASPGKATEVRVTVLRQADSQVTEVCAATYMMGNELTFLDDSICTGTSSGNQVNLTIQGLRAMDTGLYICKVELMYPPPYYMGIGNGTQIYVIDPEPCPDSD


What was measured:
[1] = molecular target: T1, recombinant human CTLA4 protein with …; test: cell based blocking FACS: antibody pre-mixed with human CTLA4-Fc (1 ug/mL), added to Daudi cells; blocked ligands: cell surface CD80/CD86
Protocol: (§1) Daudi cells were harvested from cell culture flasks at the log phase, washed twice and re-suspended in PBS containing 2% v/v Fetal Bovine Serum (FACS buffer). […] Cells were washed twice and re-suspended in FACS buffer. Fluorescence was measured using a Becton Dickinson FACS Canto II-HTS equipment. Data was analyzed using Graphpad Prism software and IC₅₀ values were reported.

[2] = molecular target: T1, recombinant human CTLA4 protein with …; test: capture ELISA: antibody captured on anti-mouse IgG F(ab')2 coated plate, biotin human CTLA4-Fc 26 ng/ml, streptavidin-HRP, OD(450-630)
Protocol: (§2) Plates were washed once with wash buffer (PBS+0.05% v/v Tween-20, PBST) and then blocked with 200 µl/well blocking buffer (PBST with 5% w/v non-fatty milk) for 2 hours at 37° C. […] After a final wash, plates were incubated with 100 µl/well substrate TMB (Innoreagents, Cat#TMB-S-002). The reaction was stopped in 15 minutes at room temperature with 50 µl/well 1M H₂SO₄, and the absorbance of the each well was read on a microplate reader using dual wavelength mode with 450 nm for TMB and 630 nm as the reference wavelength, then the OD (450-630) values were plotted against antibody concentration. Data was analyzed using Graphpad Prism software and EC₅₀ values were reported.

[3] = molecular target: T1, recombinant human CTLA4 protein with …; test: cell based blocking FACS: antibody pre-mixed with human CTLA4-Fc, added to Daudi cells; blocked ligands: cell surface CD80/CD86
[4] = molecular target: T1, recombinant human CTLA4 protein with …; test: competitive ELISA: antibody pre-mixed with biotin human CTLA4-Fc (65 ng/ml), added to plate coated with the benchmark; competitor: coated Yervoy
Protocol: (§3) Plates were washed once with wash buffer, blocked with 200 µl PBST with 5% w/v non-fatty milk, incubated for 2 hours at 37° C., and washed 4 times.
(§4) After incubation at 37° C. for 40 minutes, plates were washed 4 times again using wash buffer. Then the plates were added and incubated with 100 µl/well streptavidin conjugated HRP (1:10000 dilution in PBST, Jackson Immuno Research, Cat#016-030-084, 100 µl/well) for 40 minutes at 37° C. Plates were finally washed using wash buffer. Finally, TMB was added and the reaction was stopped using 1M H₂SO₄, and the absorbance of the each well was read on a microplate reader using dual wavelength mode with 450 nm for TMB and 630 nm as the reference wavelength, then the OD (450-630) values were plotted against antibody concentration. Data was analyzed using Graphpad Prism software and IC₅₀ values were reported.

[5] = molecular target: T1, recombinant human CTLA4 protein with …; test: cell-based or functional assay
[6] = molecular target: T2, recombinant human CTLA4-his protein …; test: SPR, Biacore T200; antibody captured, CTLA4-his as analyte
Protocol: (§5) Un-reacted moieties on the biosensor surface were blocked with ethanolamine. […] The antigen-antibody association kinetics was followed for 2 minutes and the dissociation kinetics was followed for 10 minutes. The association and dissociation curves were fit to a 1:1 Langmuir binding model using BIAcore evaluation software.

[7] = molecular target: T3, cynomolgus monkey CTLA4-his protein …; test: as above
Protocol: as §5

[8] = molecular target: T1, recombinant human CTLA4 protein with …; test: capture ELISA: antibody captured on coated plate (anti-human IgG Fc for the chimeric antibodies), biotin human CTLA4-Fc, streptavidin-HRP, OD(450-630)
Protocol: as §2
For the capture ELISA, AffiniPure Goat Anti-Human IgG, Fcy fragment specific (Jackson Immuno Research, Cat#109-005-008) was used instead of AffiniPure Goat Anti-Mouse IgG, F(ab′)₂ fragment specific, 100 µl/well.

[9] = molecular target: T2, recombinant human CTLA4-his protein …; test: BLI, Octet RED96; antibody on AHC sensor, CTLA4-his as analyte
Protocol: (§6) Briefly, AHC biosensors (anti-human IgG Fc capture, from ForteBio) were presoaked with 10 mM glycine (pH 1.5) for 3 seconds, and then dipped in a well with running buffer (0.5% w/v BSA in PBST) for 3 seconds, the soaking and dipping steps were repeated for three times. […] A new baseline was run for 180 seconds in another well with running buffer. […] Finally, sensors were presoaked with 10 mM glycine (pH 1.5) for 3 seconds, and then were dipped in a well with running buffer for 3 seconds, the soaking and dipping steps repeated for three times. The association and dissociation curves were fit to a 1:1 Langmuir binding model using ForteBio Data Analysis 8.1.

[10] = molecular target: T1, recombinant human CTLA4 protein with …; test: competitive ELISA: antibody pre-mixed with biotin human CTLA4-Fc, added to plate coated with the benchmark; competitor: coated Yervoy
Protocol: as §3, §4
(§7) In the capture ELISA assay, the 96-well micro plates were coated with 2 µg/ml goat anti-human IgG (AffiniPure Goat Anti-Human IgG, F(ab′)₂ fragment specific, Jackson Immunoresearch, Cat#109-005-097) instead of the goat anti-mouse IgG F(ab′)₂ fragment, 100 µl/well.

[11] = molecular target: T1, recombinant human CTLA4 protein with …; test: capture ELISA (plate coated with goat anti-human IgG F(ab')2 per paragraph 181), biotin human CTLA4-Fc, streptavidin-HRP, OD(450-630)
Protocol: as §2, §7

[12] = molecular target: T2, recombinant human CTLA4-his protein …; test: SPR, Biacore; antibody captured on anti-human IgG CM5 chip, CTLA4-his as analyte
Protocol: as §5, with “software. […]” for “software.”

[13] = molecular target: T3, cynomolgus monkey CTLA4-his protein …; test: as above
Protocol: as §5, with “software. […]” for “software.”

[14] = molecular target: T2, recombinant human CTLA4-his protein …; test: BLI, Octet; antibody from cell supernatant on AHC sensor, CTLA4-his as analyte
Protocol: as §6

[15] = molecular target: T1, recombinant human CTLA4 protein with …; test: cell based blocking FACS: antibody pre-mixed with human CTLA4-Fc, added to Daudi cells; blocked ligands: cell surface CD80/CD86; remark: listed apart in the source
Protocol: as §1, §7

[16] = molecular target: T1, recombinant human CTLA4 protein with …; test: cell-based or functional assay; remark: listed apart in the source

Binder	IC50 [1]	EC50 [2]	IC50 [3]	IC50 [4]	EC50 of IL-2 release (GS-J1 T cells + GS-C1/CD80 cells + human CTLA4-Fc, IL-2 HTRF) [5]	Kd [6]	koff [6]	kon [6]	Kd [7]	koff [7]	kon [7]	EC50 [8]	Kd [9]	koff [9]	kon [9]	further results
mouse anti-CTLA4 monoclonal antibody C1G4 (antibody, V domains shown, mouse mAb purified from hybridoma supernatant) VH: EVKLDETGGGLVQPGRPIKLSCVASGFTFSDNWMNWVRQSPEKGLEWVAQIRNKPYNYETYYSDSVKGRFTISRDDSKSSVYLQMNNLRTKDMGIYYCTGGFTYWGQGTLVTVSA VL: DIQMTQSPPSLSASVGETVTITCGASENIYGGLNWYQRKQGKSPQLLIYGATNLADGMSSRFSGSGSGRQYSLKISRLHPDDVATYYCQNVLNTPYTFGGGTKLEIK	11 nM	0.134 nM	10.6 nM	0.865 nM	35.3 nM	1.77 nM	0.000513 s⁻¹	290000 M⁻¹ s⁻¹	1.71 nM	0.00077 s⁻¹	451000 M⁻¹ s⁻¹	0.832 nM				
chimeric C1G4 anti-CTLA4 antibody (antibody, human IgG4 S228P, kappa, V domains shown, mouse variable domains on human IgG4/kappa, made in 293F cells) VH: EVKLDETGGGLVQPGRPIKLSCVASGFTFSDNWMNWVRQSPEKGLEWVAQIRNKPYNYETYYSDSVKGRFTISRDDSKSSVYLQMNNLRTKDMGIYYCTGGFTYWGQGTLVTVSA VL: DIQMTQSPPSLSASVGETVTITCGASENIYGGLNWYQRKQGKSPQLLIYGATNLADGMSSRFSGSGSGRQYSLKISRLHPDDVATYYCQNVLNTPYTFGGGTKLEIKR			10.2 nM									0.869 nM	1 nM	0.000679 s⁻¹	676000 M⁻¹ s⁻¹	
mouse anti-CTLA4 monoclonal antibody D1B6 (antibody, V domains shown, mouse mAb purified from hybridoma supernatant) VH: EVQLQQSGPELVKPGASVKLSCKASGNTFTTYVLNWVKQKPGQGLEWIGYFNPYNDGIKYNEKFKGKATLTSDKSSNTAYMELSSLTSEDSAVYYCARFEGGGYAMDYWGQGTSVTVSS VL: DIVLTQSPASLAVSLGQRATISCRASQSVGTSRNTYIHWYQQKLGQPPKLLIKYASDLESGVPARFSGSGSGTDFTLNIHPVEEEDTATYYCQHSWEIPYTFGGGTKLEIK	~4.6 nM	0.116 nM	8.09 nM	0.618 nM	36.6 nM	7.45 nM	0.000487 s⁻¹	65400 M⁻¹ s⁻¹	4.12 nM	0.000787 s⁻¹	191000 M⁻¹ s⁻¹	0.418 nM				
chimeric D1B6 anti-CTLA4 antibody (antibody, human IgG4 S228P, kappa, V domains shown, mouse variable domains on human IgG4/kappa, made in 293F cells) VH: EVQLQQSGPELVKPGASVKLSCKASGNTFTTYVLNWVKQKPGQGLEWIGYFNPYNDGIKYNEKFKGKATLTSDKSSNTAYMELSSLTSEDSAVYYCARFEGGGYAMDYWGQGTSVTVSS VL: DIVLTQSPASLAVSLGQRATISCRASQSVGTSRNTYIHWYQQKLGQPPKLLIKYASDLESGVPARFSGSGSGTDFTLNIHPVEEEDTATYYCQHSWEIPYTFGGGTKLEIKR			~6.6 nM									0.514 nM	148 nM	0.00076 s⁻¹	5140 M⁻¹ s⁻¹	
huC1D1-V8 (antibody, human IgG4 S228P, kappa, V domains shown, humanized IgG4/kappa; cell supernatant on Octet, purified antibody in Biacore, ELISA, FACS and the functional assay; also called hu CTLA4 C1D1-V8) VH: EVQLVESGGGLVQPGRSLRLSCTASGFTFSDNWMNWVRQAPGKGLEWVGQIRNKPYNYETYYSDSVKGRFTISRDDSKSIAYLQMNSLKTEDTAVYYCTGGMDYWGQGTTVTVSS VL: DIQMTQSPSSLSASVGDRVTITCGASEIIYGALNWYQQKPGKSPKLLIYGATNLADGVPSRFSGSGSGTDFTLTISSLQPEDVATYYCQKILSPPPWTFGGGTKVEIKR																IC50 [10]: 1.71 nM; EC50 [11]: 0.746 nM; Kd [12]: 12 nM; koff [12]: 0.00086 s⁻¹; kon [12]: 71900 M⁻¹ s⁻¹; Kd [13]: 7.49 nM; koff [13]: 0.00112 s⁻¹; kon [13]: 150000 M⁻¹ s⁻¹; Kd [14]: 0.614 nM; koff [14]: 0.00019 s⁻¹; kon [14]: 309000 M⁻¹ s⁻¹; IC50 [15]: 5.74 nM; EC50 of IL-2 release (GS-J1 T cells + GS-C1/CD80 cells + human CTLA4-Fc, IL-2 HTRF) [16]: 28.7 nM

Source: patent US20230212304A1 (BIOSION, published 2023)
